We go through 2 molecules from patent US20200171068A1, “COMPOSITIONS COMPRISING APTAMERS AND NUCLEIC ACID PAYLOADS AND METHODS OF USING THE SAME” (Children's National Medical Center, priority 2017, published 2020).

One series has as its system hematopoiesis. The experiment in a line: Carboplatin-induced myelosuppression in mice. In kind it is in vivo, mouse. On the procedure: (§1) For xenograft models, the NSG mice and BALB/c mice were subcutaneously injected with 2×10^6 viable MDA-MB-231 cells and TUBO cells in their right hind limbs, respectively. After the tumor grew to 1 cm in diameter, mice were randomly divided into the groups for each treatment. For no treatment control, 100 μl saline with 1% mouse serum was intravenously injected through tail vein. For treatment groups, 670 pmol/20 g chimeras and/or 5(0 mg/kg 5-fluorouracil (5-FU), or 120 mg/kg carboplatin were also intravenously injected. Tumor sizes were measured in two dimensions every 3 days. Tumor volume (V) was calculated using the following formula: V=(½) S^2×L (S. the shortest dimension; L, the longest dimension). Animals were euthanized when the tumor size was over 2 cm diameters, tumor ulcerated, or became necrotic. For chimera treatment in normal mice, C57BL/6 mice were treated with miR-26a chimera (670 pmol/20 g) everyday for 3 days by intravenous injection. At day 2, 150 mg/kg 5-FU and/or 120 mg/kg carboplatin was injected together with the chimera. Peripheral bloods were collected at day 5 and day 10 after the 5-FU treatment. Complete blood counts were measured by Hemavet 950FS (Drew Scientific, Miami Lakes, Fla., USA).

Series [1] has as its system MDA-MB-231 xenograft tumors. The experiment in a line: MDA-MB-231 xenograft in NSG mice. In kind it is in vivo, mouse.
Text: Xenograft model were generated 8-weeks old female immune-deficient NOD-scid IL2Rgamma^null (NSG™, Jackson Laboratories, Bar Harbar, Me., USA) using human breast cancer cell line. Syngeneic TUBO tumors were established in 8-weeks old female BALB/c mice (from Charles River Animal Facility, Frederick, Md., USA). These tumor-bearing mice were randomly assigned to each treatment group. Eight-week old male C57BL/6 mice and C57BL/6 ly5.2 mice (from Charles River Animal Facility, Frederick, Md., USA) were used for bone marrow transplantation assay. The mouse groups assigned for each treatment were not blinded. No statistical methods were used to pre-determined sample size for the analysis of mouse experiments. All the mice were maintained in the Research Animal Facility at Children's National Institute, Children's National Medical Center. The committee on the Use and Care of Animal at Children's National Institute approved all procedures involving experimental animals.
as §1

Series [2] concerns MDA-MB-231 cells. Description: Growth and apoptosis of MDA-MB-231 cells cultured with chimera. In kind it is cell-based, human. The settings on record: 3 days of culture. The source says:
FIG. 1A-FIG. 1H show identification and validation of KIT-targeting miR-26a chimera that inhibits human breast cancer growth in vitro and in vivo. FIG. 1A is a graph showing the overall survival of basal-like breast cancer patients with higher or lower expression of miR-26a-2 based on the expression scores comparing to the mean value in TCGA cohort. FIG. 1B is a graph showing the binding of anti-KIT antibody and KIT DNA aptamer to MDA-MB-231 cell line. Other cell targeting aptamer is specific for Ramos cells. FIG. 1C depicts the secondary structure of KIT aptamer-miR-26a chimera. KIT DNA aptamer was linked with C3 linker to RNA passenger sequence that was complimentary binds to miR-26a mimic sequence. Another RNA passenger sequence binding to the 3′ of miR-26 mimic was conjugated with TEG-cholesterol. FIG. 1D is a graph showing specific miR-26a delivery by the miR-26a chimera. […] After 3 days of culture with miR-26a chimera or control chimera, MDA-MB-231 cell numbers (left) were counted using hemocytometer and Annexin V positive cells (%) (right) was determined by flow cytometry. […]
For aptamer binding assay, streptavidin-APC (Cat #554067) […] Bioscience, San Jose, Calif., USA) was used for detecting the biotin-conjugated aptamers by flow cytometry. […] Flow cytometry analysis was performed on FACS Canto II (BD Bioscience) and the data were analyzed with FlowJo (FLOWJO, Ashland, Oreg., USA). […]

The next series deals with EZH2 protein. The experiment in a line: EZH2 immunoblot in chimera-treated MDA-MB-231 cells. Type of series: cell-based, human. The settings on record: 167 nM chimeras for 2 days. As for the experimental part: The cell lysate from MDA-MB-231 cells treated with 167 nM chimeras for 2 days were fractionated by SDS-PAGE and then transferred to PVDF membrane (EMD Millipore, Billerica, Mass., USA). Following blocking with 5% FBS in tris-buffered saline, the membrane was incubated with primary antibody against EZH2 (D2C2) and Histone H3 (Cat #9715) (Cell Signaling Technologies, Danvers, Mass., USA) overnight at 4° C. and then incubated with horseradish peroxidase-conjugated anti-mouse and rabbit IgGs (Thermo Fisher Scientific) for 1 hr. respectively. The antigen-antibody immunoreactivity was detected in ChemiDoc Touch Imaging System (Bio-Rad Hercules, Calif., USA) using SuperSignal West Pico Chemiluminescent Substrate (Thermo Fisher Scientific).
(In western blotting, separated proteins are transferred to a membrane and probed.)

Series [3] relates to MDA-MB-231 cells. Description: miR-26a delivery into MDA-MB-231 cells, qPCR. The settings on record: two days after incubation, compared to control chimera. In kind it is cell-based, human. The source says: Total RNAs from cell lines and mouse tissues were extracted by RNeasy Plus Mini kit (Qiagen, Valencia, Calif., USA). miR-26a levels were quantified by Taqman microRNA assay (assay ID; 000405) that covered both has-miR-26a-5p and mmu-miR-26a-5p (Thermo Fisher Scientific) according to manufacturer's protocol. U6 snRNA (Taqman microRNA assay, assay ID; 001973) was used as endogenous control. For qPCR of other genes, cDNAs were synthesized from the purified total RNA with qScript cDNA supermix (Quanta Bio, Gaithersburg, Md., USA). Real-time PCR was performed with Power SYBR Green PCR master mix (Thermo Fisher Scientific) on 7500 Real Time PCR system (Thermo Fisher Scientific). Sequence primers for mouse Bak were […] (forward) (SEQ ID NO: 11) and […] (reverse) (SEQ ID NO:12). For mouse Ezh2, […] (forward) (SEQ ID NO:13) and […] (reverse) (SEQ ID NO:14). For mouse Actb, […] (forward) (SEQ ID NO:15) and […] (reverse) (SEQ ID NO:16) were used as endogenous control.
(In general: In qPCR the cycle at which signal appears reflects the starting amount.)

“Also recorded” adds a separate entry of the source. [C3] = C3 (propyl) spacer linking the 3' end of the DNA aptamer to the passenger RNA

Consider `N.N.O=C([O-])C1(C(=O)[O-])CCC1.[Pt+2]` [carboplatin, reference compound], for which, in the series on hematopoiesis (day 10), the “red blood cells after carboplatin” value was “reduction of red blood cells was also observed”. For the same molecule, in the series on hematopoiesis (single high dose of carboplatin, day 5, compared with vehicle), the “hematopoiesis: WBC and platelet counts after carboplatin” value was “significant defects in hematopoiesis; also recorded: significantly reduced WBC and platelet counts”.

B1: KIT-targeting miR-26a chimera: anti-human KIT DNA aptamer-C3-passenger RNA, passenger RNA-TEG-cholesterol and miR-26a-5p guide strand annealed (SEQ ID NO:4/5, 8, 9) (nucleic acid)
chain 1: GAGGCATACCAGCTTATTCAAGGGGCCGGGGCAAGGGGGGGGTACCGTGGTAGGACATAGTAAGTGCAATCTGCGAA
chain 2: CCUAUUCUGG
chain 3: GUUACUUGCACG
guide: UUCAAGUAAUCCAGGAUAGGCU
modifications: chain 1: DNA, 3' [C3], backbone not given here; chain 2: chemistry not given here; chain 3: chemistry not given here; guide: chemistry not given here; DNA aptamer joined by C3 spacer to passenger RNA, annealed three-part chimera
As for B1, the “tumor growth (tumor volume)” value in series [1] (5 or 10 daily intravenous injections, 670 pmol/20 g) was “significantly suppressed the tumor growth”. For the same molecule, the survival entry in series [1] (5 or 10 daily intravenous injections, 670 pmol/20 g, log-rank test vs control chimera) is listed as “extended their survival”. For the same molecule, the “miR-26a in KIT+ tumor cells” value in series [1] (NSG mice, MDA-MB-231 tumor, 3 days after intravenous injection 670 pmol/20 g, qPCR) was “Significant increase; also recorded: significant elevation”. The “miR-26a in KIT tumor cells (KIT-negative population)” value in series [1] (NSG mice, MDA-MB-231 tumor, 3 days after single injection, qPCR) is “No increase”. Moreover, the “Annexin V positive cells (apoptosis) of MDA-MB-231 cells” value in the series with MDA-MB-231 cells [2] (flow cytometry) was “induced apoptosis; also recorded: induction of apoptosis”. The “MDA-MB-231 cell numbers (growth)” value with MDA-MB-231 cells [2] (hemocytometer) is on record as “suppressed the growth; also recorded: inhibited cell growth”. Moreover, the EZH2 protein expression entry in the series with EZH2 protein is recorded as “significant suppression; also recorded: significantly suppressed”. In the series with MDA-MB-231 cells [3], the “miR-26a expression in the MDA-MB-231 cells” value was “significant increase; also recorded: successfully delivered miR-26a”.
